The text below walks through data of patent US8916149B2, “Preventing and treating sepsis” (University of Rochester, priority 2008, dated 2014).

In assay [1] the test system is patients with severe sepsis. The settings on record: subset of patients; cited from earlier work.
For assay [2], the system named is neutrophil. The settings on record: without any protein coatings; cited from earlier work.
Assay [3] deals with LPS treated mice. As to the kind of experiment: Neutrophil recruitment into airspace (BALF) after intranasal LPS. The settings on record: 10 μg/mouse i.v. 2 hours after LPS. The assay is classed as in vivo, mice (C57BL/6). As for the experimental part:
Mice (C57BL/6, 6-8 weeks) were anesthetized with avertin and then intranasally administered 30 μg of LPS (Sigma-Aldrich, St. Louis, Mo.). […] Mice were sacrificed 4 hours later and bronchioalveolar lavage was harvested. Cells were fixed with 4% formaldehyde for 20 minutes. Cells were counted using microbeads (Polyscience, Niles, Ill.) by flow cytometry. Cells were stained with Gr-1 APC antibody (eBioscience, San Diego, Calif.) and collected by flow cytometry. Data were analyzed using FlowJo software (Tree Star, Ashland, Oreg.).

Assay [4] relates to human neutrophils. As to the kind of experiment: Random migration of neutrophils on FN-coated cover glass (live-cell imaging). The assay is classed as cell-based. As for the experimental part:
(§1) Delta T dishes were coated with human FN (50 μg/ml, BD Biosciences, San Jose, Calif.) for overnight at 4° C. and then for 4 h at room temperature. Plates were then rinsed with L-15 media. […] The cells were then added to FN-coated dishes in 1.5 ml of L-15 with 2 mg/ml of glucose. For neutrophil live cell staining, 2 μM Green Cell Tracker CMFDA (5-chloromethylfluorescein diacetate; Molecular Probes, Carlsbad, Calif.) was used. Temperature was maintained at 37° C. throughout the experiment using a FCS2 live-cell imaging chamber (Bioptechs, Butler, Pa.). Images were acquired for 30 to 60 minutes under a 10× objective lens using a Nikon TE-2000U inverted microscope. Phase contrast images were acquired every 5 seconds and fluorescence images every 30 seconds. Cell paths were traced using MetaVue™ imaging software (Molecular Devices Corporation, Downingtown, Pa.).
Random migration was investigated by adding fMLP or IL-8 to media at a final concentration of 10^−8M and analyzed by manually tracing the outline of each cell in selected frames (i.e., at 50 second intervals). The x and y coordinates of each cell were measured using ImageJ software and were corrected so that the starting position was x=0 and y=0.
(§2) The time-lapsed images of migrating neutrophils were taken under phase contrast microscopy. Each image was thresholded and binarized based on brightness to define the centroids of the neutrophils. The closest centroids between consecutive images were linked as a trajectory under the assumption that these centroids were made by the same neutrophil. The maximum distance between the closest centroids was also defined to preclude the artifacts due to cells moving into and out of the field of view.

Assay [5] relates to human neutrophils. In words: Micropipette assay (directional migration toward fMLP tip). The assay is classed as cell-based. On the procedure:
as §1
Directional migration was investigated using a micropipette assay to analyze the dynamics of neutrophil migration on different integrin ligands. Sterile Femtotips II micropipette tips (Eppendorf, Westbury, N.Y.) were loaded with 5 μl of 1 μM fMLP and then placed on the bottom of FN-coated delta T dishes that had been pre-warmed to 37° C. Image acquisition began within 2 minutes of tip placement.
as §2

The test system of assay [6] is human neutrophils. As to the kind of experiment: rhAPC binding to neutrophils in suspension (chromogenic substrate S-2366). The settings on record: 1 mM Ca2+ and 1 mM Mg2+ supplemented with 1 mM Mn2+. As for the experimental part:
Control (PBS) or rhAPC-treated neutrophils were incubated with the indicated concentrations of MgCl2 and CaCl2. The LIBS of β1 and β3 integrins were detected by B44 and D3 mAb, respectively. *P<0.05 vs. PBS treated cells. […] Experiments were repeated on neutrophil preparations from three independent donors. In FIGS. 2A, 2C, 2D, 2E, and 2F, results are expressed as mean±SEM of three independent experiments.
The best characterized integrin binding motif is the RGD sequence, which is present in FN, fibrinogen, von Willebrand factor, vitronectin, and a variety of other adhesion proteins. Many integrins that bind to extracellular protein ligands including α3β1, α5β1, αIIbβ3, and αVβ3, specifically interact with the RGD sequence of their target proteins. […] To test this hypothesis, rhAPC-binding assays were performed with neutrophils in suspension. The assay buffer containing 1 mM Ca^2+ and 1 mM Mg^2+ was supplemented with 1 mM Mn^2+ to activate cell surface integrins.

The test system of assay [7] is lipopolysaccharide (LPS)-induced pulmonary inflammation. The settings on record: intravenous administration; cited from earlier work.
Assay [8] addresses T1, α5β1 (Homo sapiens, UniProt P05556+P08648).
T1 construct: purchased US Biological, Swampscott, Mass
In words: Solid phase integrin ligand binding assay. The settings on record: 1 mM Mn2+, 1 mM Ca2+, 1 mM Mg2+. On the procedure: (§3) The solid phase binding assay was performed using purified soluble human α3β1, α5β1, and αVβ3 (US Biological, Swampscott, Mass.). Two (2) μg/ml of soluble integrins were added to microtiter wells for capture with immobilized monoclonal antibody against β1 or β3 subunits (mAb TS2/6 for β1 and mAb BB10 (Chemicon, Temecula, Calif.) for β3 integrins). […] After washing, bound APC was chromogenically detected by peroxidase-streptavidin conjugate anti-PC (Diapharma, West Chester, Ohio) or chromogenic substrate S-2366 (Diapharma, West Chester, Ohio). To minimize dissociation, all wash buffers contained 1 mM Mn^2+, and <15 minutes elapsed between the end of binding and beginning of color development. Functional blocking antibodies for integrins were from Chemicon (Temecula, Calif.).
(§4) Among the neutrophil integrins that recognize the RGD motif, α3β1, α5β1, and αVβ3 are key in regulating neutrophil chemotaxis (Yauch et al., Mol. Biol. Cell 9:2751 (1998); Burns et al., J. Immunol. 166:4644 (2001); Sixt et al., J. Biol. Chem. 276:18878 (2001)). To test whether APC can bind directly to the integrins, an ELISA-like solid phase receptor-binding assay was performed (FIG. 2E). Soluble α3β1, α5β1, and αVβ3 were captured onto microtiter wells using mAbs specific for β1 or β3.

For assay [9], the target named is T2, α3β1 (Homo sapiens, UniProt P05556+P26006).
T2 construct: purchased US Biological, Swampscott, Mass
As to the kind of experiment: Solid phase integrin ligand binding assay. The settings on record: 1 mM Mn2+, 1 mM Ca2+, 1 mM Mg2+. On the procedure:
as §3, §4

For assay [10], the target named is T3, αVβ3 (Homo sapiens, UniProt P05106+P06756).
T3 construct: purchased US Biological, Swampscott, Mass
In words: Solid phase integrin ligand binding assay. The settings on record: 1 mM Mn2+, 1 mM Ca2+, 1 mM Mg2+. As for the experimental part:
as §3, §4

T2 sequence (P26006 33-872 limits assumed): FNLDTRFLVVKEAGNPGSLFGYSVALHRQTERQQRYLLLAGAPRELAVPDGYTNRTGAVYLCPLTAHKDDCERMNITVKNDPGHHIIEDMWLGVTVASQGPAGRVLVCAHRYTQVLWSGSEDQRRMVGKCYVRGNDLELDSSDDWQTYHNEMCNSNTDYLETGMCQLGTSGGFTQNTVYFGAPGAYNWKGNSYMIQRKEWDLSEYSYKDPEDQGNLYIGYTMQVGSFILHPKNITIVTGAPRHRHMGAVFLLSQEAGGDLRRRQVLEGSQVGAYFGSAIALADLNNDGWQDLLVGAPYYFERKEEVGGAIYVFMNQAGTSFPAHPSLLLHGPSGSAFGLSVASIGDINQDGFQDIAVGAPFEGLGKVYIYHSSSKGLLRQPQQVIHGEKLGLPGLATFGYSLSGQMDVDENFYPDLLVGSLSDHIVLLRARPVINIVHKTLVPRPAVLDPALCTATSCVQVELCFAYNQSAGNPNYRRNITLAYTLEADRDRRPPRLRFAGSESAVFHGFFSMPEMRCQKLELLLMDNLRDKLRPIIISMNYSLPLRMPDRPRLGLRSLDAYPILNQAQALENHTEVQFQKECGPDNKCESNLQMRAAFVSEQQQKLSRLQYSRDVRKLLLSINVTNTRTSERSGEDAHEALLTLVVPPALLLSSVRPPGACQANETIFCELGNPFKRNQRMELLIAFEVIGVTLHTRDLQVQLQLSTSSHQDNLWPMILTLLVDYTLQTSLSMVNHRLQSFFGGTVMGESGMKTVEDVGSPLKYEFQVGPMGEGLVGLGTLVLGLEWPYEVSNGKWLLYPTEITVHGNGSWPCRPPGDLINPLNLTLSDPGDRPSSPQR
T2 sequence (P26006 876-1051 partner limits assumed): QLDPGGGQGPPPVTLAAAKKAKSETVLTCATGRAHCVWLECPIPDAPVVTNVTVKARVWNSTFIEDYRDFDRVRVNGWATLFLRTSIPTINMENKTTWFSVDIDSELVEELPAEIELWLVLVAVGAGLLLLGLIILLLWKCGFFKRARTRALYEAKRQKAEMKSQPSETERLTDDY
T2 sequence (P05556 21-798): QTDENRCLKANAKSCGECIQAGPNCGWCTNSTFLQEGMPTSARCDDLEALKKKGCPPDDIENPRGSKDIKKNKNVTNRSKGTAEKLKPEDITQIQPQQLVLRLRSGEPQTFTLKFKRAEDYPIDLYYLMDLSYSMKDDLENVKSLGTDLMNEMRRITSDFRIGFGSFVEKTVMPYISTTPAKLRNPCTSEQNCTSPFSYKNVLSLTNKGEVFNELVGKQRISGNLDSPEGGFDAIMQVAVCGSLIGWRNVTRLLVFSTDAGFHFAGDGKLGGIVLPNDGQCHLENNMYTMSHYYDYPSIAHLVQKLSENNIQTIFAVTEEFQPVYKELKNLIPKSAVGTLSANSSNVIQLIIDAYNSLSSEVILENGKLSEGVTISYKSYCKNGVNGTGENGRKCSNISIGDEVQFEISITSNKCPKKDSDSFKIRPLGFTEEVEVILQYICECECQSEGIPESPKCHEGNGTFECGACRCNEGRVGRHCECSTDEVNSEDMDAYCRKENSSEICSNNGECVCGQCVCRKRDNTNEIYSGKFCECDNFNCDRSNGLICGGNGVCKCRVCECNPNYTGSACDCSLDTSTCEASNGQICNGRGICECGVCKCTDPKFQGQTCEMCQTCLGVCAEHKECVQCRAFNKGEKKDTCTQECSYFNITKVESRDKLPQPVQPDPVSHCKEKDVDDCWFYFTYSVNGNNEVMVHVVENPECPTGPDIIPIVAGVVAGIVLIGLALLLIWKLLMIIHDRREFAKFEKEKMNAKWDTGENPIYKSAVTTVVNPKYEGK
T1 sequence (P08648 42-894 limits assumed): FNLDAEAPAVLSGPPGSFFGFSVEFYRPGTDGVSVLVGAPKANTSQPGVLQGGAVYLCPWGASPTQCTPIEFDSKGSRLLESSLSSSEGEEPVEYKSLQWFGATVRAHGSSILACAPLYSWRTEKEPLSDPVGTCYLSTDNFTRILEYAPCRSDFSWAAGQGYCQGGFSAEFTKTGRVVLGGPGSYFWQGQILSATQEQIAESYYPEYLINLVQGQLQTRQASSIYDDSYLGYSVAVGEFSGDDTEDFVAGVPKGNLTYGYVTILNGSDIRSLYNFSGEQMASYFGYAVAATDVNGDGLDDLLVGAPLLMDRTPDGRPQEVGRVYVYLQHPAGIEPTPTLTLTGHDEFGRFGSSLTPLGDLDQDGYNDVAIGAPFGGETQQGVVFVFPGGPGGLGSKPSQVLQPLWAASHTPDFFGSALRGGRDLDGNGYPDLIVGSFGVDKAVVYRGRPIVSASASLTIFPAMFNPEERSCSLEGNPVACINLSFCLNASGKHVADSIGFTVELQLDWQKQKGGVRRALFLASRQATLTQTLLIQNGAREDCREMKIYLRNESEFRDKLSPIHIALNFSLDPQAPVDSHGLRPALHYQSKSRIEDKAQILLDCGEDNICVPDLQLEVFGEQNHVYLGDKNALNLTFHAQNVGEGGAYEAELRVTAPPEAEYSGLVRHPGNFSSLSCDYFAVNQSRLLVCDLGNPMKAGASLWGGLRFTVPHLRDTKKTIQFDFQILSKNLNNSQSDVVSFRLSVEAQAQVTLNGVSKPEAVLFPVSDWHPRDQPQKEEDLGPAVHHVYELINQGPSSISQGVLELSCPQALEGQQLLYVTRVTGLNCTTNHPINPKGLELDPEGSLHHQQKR
T1 sequence (P08648 895-1049 partner limits assumed): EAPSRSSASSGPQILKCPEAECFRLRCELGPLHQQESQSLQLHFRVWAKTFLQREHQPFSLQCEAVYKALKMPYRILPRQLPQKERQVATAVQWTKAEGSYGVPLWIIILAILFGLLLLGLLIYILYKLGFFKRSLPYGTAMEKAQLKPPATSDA
T1 sequence (P05556 21-798): as the sequence (P05556 21-798) above
T3 sequence (P06756 31-889 limits assumed): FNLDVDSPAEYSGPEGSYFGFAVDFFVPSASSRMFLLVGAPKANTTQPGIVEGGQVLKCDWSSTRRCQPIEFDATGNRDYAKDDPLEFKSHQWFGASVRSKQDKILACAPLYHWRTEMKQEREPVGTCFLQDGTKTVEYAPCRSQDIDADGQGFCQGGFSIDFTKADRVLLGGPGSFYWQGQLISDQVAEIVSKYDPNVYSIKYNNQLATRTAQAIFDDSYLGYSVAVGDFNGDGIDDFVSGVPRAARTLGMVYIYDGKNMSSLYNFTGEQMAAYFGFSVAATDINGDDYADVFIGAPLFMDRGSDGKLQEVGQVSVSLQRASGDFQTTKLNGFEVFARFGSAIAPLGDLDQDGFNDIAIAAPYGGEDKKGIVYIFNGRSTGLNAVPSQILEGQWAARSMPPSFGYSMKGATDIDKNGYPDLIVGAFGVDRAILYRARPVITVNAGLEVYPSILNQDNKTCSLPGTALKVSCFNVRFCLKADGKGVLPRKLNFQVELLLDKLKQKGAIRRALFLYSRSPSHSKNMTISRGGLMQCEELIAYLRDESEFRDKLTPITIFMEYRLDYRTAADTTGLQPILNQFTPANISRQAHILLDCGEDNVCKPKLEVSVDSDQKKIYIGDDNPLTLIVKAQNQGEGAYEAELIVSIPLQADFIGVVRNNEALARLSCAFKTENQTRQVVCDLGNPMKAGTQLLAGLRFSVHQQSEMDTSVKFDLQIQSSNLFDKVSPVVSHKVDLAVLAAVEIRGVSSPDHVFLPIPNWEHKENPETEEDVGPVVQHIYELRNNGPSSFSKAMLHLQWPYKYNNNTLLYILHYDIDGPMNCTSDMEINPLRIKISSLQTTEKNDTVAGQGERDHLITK
T3 sequence (P06756 891-1048 partner limits assumed): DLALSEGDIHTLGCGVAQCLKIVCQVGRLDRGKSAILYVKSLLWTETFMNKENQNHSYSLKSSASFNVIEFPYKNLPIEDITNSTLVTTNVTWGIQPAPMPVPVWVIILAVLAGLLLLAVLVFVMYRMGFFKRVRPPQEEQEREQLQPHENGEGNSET
T3 sequence (P05106 27-788): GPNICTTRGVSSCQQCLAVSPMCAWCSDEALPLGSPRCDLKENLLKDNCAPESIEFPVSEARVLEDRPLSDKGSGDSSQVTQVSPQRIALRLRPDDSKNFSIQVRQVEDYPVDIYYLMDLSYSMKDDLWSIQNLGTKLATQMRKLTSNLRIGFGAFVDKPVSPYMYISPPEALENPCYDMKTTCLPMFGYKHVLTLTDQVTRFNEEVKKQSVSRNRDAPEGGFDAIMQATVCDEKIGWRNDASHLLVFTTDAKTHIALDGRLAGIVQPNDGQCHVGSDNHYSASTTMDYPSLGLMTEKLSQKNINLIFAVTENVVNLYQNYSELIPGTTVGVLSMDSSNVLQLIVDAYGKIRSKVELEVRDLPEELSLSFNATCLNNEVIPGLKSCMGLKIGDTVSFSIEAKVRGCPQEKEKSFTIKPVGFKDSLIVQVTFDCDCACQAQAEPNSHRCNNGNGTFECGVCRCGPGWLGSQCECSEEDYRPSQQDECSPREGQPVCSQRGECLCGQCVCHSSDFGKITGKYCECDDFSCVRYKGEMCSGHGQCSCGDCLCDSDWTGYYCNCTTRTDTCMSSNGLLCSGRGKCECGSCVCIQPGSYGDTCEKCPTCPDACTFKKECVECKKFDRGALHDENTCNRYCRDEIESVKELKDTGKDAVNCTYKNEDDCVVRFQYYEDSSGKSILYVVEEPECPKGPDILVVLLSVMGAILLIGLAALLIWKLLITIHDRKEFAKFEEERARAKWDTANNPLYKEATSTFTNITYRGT

B1: rhAPC: Recombinant human activated protein C obtained from Eli Lilly; FDA-approved drug for severe sepsis (protein)
chain 1: ANSFLEELRHSSLERECIEEICDFEEAKEIFQNVDDTLAFWSKHVDGDQCLVLPLEHPCASLCCGHGTCIDGIGSFSCDCRSGWEGRFCQREVSFLNCSLDNGGCTHYCLEEVGWRRCSCAPGYKLGDDLLQCHPAVKFPCGRPWKRMEKKRSHL
chain 2: LIDGKMTRRGDSPWQVVLLDSKKKLACGAVLIHPSWVLTAAHCMDESKKLLVRLGEYDLRRWEKWELDLDIKEVFVHPNYSKSTTDNDIALLHLAQPATLSQTIVPICLPDSGLAERELNQAGQETLVTGWGYHSSREKEAKRNRTFVLNFIKIPVVPHNECSEVMSNMVSENMLCAGILGDRQDACEGDSGGPMVASFHGTWFLVGLVSWGEGCGLLHNYGVYTKVSRYLDWIHGHIRDKEAPQKSWAP
For the molecule B1, the “mortality in patients with severe sepsis” value in assay [1] is listed as “significantly reduced”. In addition, the “neutrophil migration through nitrocellulose micropore filter” value in [2] is recorded as “inhibited”. The “neutrophil recruitment in the BALF” value in assay [3] is on record as “significantly reduced”. Also, in assay [4] (10 μg/ml protein, fMLP), the “random migration of neutrophils on FN induced by fMLP” value was “dramatically reduced”. For the same molecule, the “neutrophil migration on FN by IL-8” value in [4] (rhAPC pre-treatment, IL-8) is listed as “dramatically decreased”. In assay [5], the direction of movement entry is “without significantly altering”. Moreover, in assay [5] (over 30 neutrophils in each group), the “decrease of average lateral migration speed (S)” value is recorded as “more than 2.5 fold”. In addition, the “neutrophil migration on FN toward the fMLP tip” value in assay [5] (rhAPC pre-treatment) is recorded as “dramatically decreased”. The “rhAPC binding to the neutrophil surface” value in assay [6] is “significantly increased”. Further, the LPS-induced pulmonary inflammation result in assay [7] is reported as “reduce”. For the same molecule, in [8], the “direct binding to soluble α5β1” value is given as “bound”. In addition, the “direct binding to soluble α3β1” value in assay [9] was “bound”. In assay [10], the “direct binding to soluble αVβ3” value was “bound”.
